Measurements reported in IntAct's records for PubMed 21664272.

Biological target: T1, rasa1_human RASA1 (UniProt P20936)
T1 sequence: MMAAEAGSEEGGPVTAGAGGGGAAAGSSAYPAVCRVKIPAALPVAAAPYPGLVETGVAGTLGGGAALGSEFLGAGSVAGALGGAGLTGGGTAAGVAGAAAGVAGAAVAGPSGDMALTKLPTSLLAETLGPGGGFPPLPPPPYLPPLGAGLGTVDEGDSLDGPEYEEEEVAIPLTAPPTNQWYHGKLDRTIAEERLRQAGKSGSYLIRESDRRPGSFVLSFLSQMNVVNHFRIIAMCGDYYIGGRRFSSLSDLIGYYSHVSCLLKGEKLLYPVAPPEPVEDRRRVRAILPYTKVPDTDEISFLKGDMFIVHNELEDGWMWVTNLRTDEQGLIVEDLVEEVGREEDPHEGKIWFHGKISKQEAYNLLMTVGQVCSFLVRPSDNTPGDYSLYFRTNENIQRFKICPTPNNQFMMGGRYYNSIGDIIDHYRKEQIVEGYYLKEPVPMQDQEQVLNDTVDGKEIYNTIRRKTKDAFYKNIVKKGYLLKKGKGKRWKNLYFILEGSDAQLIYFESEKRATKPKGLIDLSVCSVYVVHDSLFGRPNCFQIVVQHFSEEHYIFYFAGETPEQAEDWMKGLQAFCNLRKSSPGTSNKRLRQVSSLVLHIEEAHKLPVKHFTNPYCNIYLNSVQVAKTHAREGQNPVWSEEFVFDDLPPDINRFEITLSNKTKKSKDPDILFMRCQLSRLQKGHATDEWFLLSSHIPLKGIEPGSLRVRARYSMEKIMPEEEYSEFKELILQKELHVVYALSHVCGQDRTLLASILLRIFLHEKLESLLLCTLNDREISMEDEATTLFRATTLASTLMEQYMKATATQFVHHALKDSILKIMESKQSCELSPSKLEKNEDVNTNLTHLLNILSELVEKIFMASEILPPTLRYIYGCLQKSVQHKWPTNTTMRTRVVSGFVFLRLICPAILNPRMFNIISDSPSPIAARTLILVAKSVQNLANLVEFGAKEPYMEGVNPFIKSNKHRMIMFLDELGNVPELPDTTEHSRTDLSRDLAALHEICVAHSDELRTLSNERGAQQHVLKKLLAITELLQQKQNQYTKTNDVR

Substance | effect of a mutation on the interaction
SH2/SH3 adapter protein NCK1 (Homo sapiens) (from UniProt P16333) W38K | decreasing interaction
SH2/SH3 adapter protein NCK1 (Homo sapiens) (from UniProt P16333) W38K;W39K;W143K;W229K | decreasing interaction
SH2/SH3 adapter protein NCK1 (Homo sapiens) (from UniProt P16333) W38K;W143K;W229K;R308K | decreasing interaction
SH2/SH3 adapter protein NCK1 (Homo sapiens) (from UniProt P16333) W38K;W229K;R308K | disrupting interaction
SH2/SH3 adapter protein NCK1 (Homo sapiens) (from UniProt P16333) W143K;W229K;R308K | decreasing interaction
SH2/SH3 adapter protein NCK1 (Homo sapiens) (from UniProt P16333) W229K | decreasing interaction
